Laboratory results reported in patent US20050043232A1.
Where a chain is given by its changes, count along the chain named.

T1: myostatin pro peptide (wild type)
T1 sequence: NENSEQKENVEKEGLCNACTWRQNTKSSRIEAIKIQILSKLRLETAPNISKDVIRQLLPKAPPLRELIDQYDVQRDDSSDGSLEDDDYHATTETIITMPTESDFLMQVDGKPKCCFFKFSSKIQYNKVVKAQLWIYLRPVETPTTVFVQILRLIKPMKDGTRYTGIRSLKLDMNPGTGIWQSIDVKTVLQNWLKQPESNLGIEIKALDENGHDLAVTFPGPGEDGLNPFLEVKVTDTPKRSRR

T2: myostatin pro peptide (wild type) (Homo sapiens (Human)) (UniProt O14793)
T2 sequence: T1 sequence

T3: 30-mer D to A mutant peptide (SEQ ID NO:17)
T3 sequence: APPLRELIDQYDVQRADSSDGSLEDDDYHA

T4: 20-mer D to A mutant peptide (SEQ ID NO:20)
T4 sequence: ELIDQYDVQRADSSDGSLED

T5: 30-mer wild type myostatin pro peptide peptide (SEQ ID NO:15)
T5 sequence: T3 sequence with A16D

T6: 30-mer R to Q mutant peptide (SEQ ID NO:16)
T6 sequence: T3 sequence with R15Q, A16D

T7: 40-mer wild type myostatin pro peptide peptide (SEQ ID NO:12)
T7 sequence: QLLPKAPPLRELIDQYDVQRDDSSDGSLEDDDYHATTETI

T8: 40-mer D to A mutant peptide (SEQ ID NO:14)
T8 sequence: T7 sequence with D21A

T9: 20-mer R to Q mutant peptide (SEQ ID NO:19)
T9 sequence: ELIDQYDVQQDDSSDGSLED

T10: 40-mer R to Q mutant peptide (SEQ ID NO:13)
T10 sequence: T7 sequence with R20Q

T11: 20-mer wild type myostatin pro peptide peptide (SEQ ID NO:18)
T11 sequence: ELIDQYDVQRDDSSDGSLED

B1: mammalian Tolloid-like-1 (mTLL-1) (enzyme, UniProt Q62381 148-1013, looked up, species assumed)
Tolloid-like protein 1: AATSRTERIWPGGVIPYVIGGNFTGSQRAMFKQAMRHWEKHTCVTFTERSDEESYIVFTYRPCGCCSYVGRRGNGPQAISIGKNCDKFGIVVHELGHVIGFWHEHTRPDRDNHVTIIRENIQPGQEYNFLKMEPGEVNSLGERYDFDSIMHYARNTFSRGMFLDTILPSRDDNGIRPAIGQRTRLSKGDIAQARKLYRCPACGETLQESSGNLSSPGFPNGYPSYTHCIWRVSVTPGEKIVLNFTTMDLYKSSLCWYDYIEVRDGYWRKSPLLGRFCGDKVAGVLTSTDSRMWIEFRSSSNWVGKGFAAVYEAICGGEIRKNEGQIQSPNYPDDYRPMKECVWKIMVSEGYHVGLTFQAFEIERHDSCAYDHLEVRDGASENSPLIGRFCGYDKPEDIRSTSNTLWMKFVSDGTVNKAGFAANFFKEEDECAKPDRGGCEQRCLNTLGSYQCACEPGYELGPDRRSCEAACGGLLTKLNGTITTPGWPKEYPPNKNCVWQVIAPSQYRISVKFEFFELEGNEVCKYDYVEIWSGPSSESKLHGKFCGADIPEVMTSHFNNMRIEFKSDNTVSKKGFKAHFFSDKDECSKDNGGCQHECVNTMGSYTCQCRNGFVLHENKHDCKEAECEQKIHSPSGLITSPNWPDKYPSRKECTWVISAIPGHRITLAFNEFEVEQHQECAYDHLEIFDGETEKSPILGRLCGSKIPDPLMATGNEMFIRFISDASVQRKGFQATHSTECGGRLKAESKPRDLYSHAQFGDNNYPGQLDCEWLLVSERGSRLELSFQTFEVEEEADCGYDYVEVFDGLSSKAVGLGRFCGSGPPEEIYSIGDVALIHFHTDDTINKKGFYIRYKSIRYPETMHAKN
B2: bone morphogenic protein-1 (BMP-1) (enzyme, UniProt P13497 121-986, looked up, species assumed)
Bone morphogenetic protein 1: AATSRPERVWPDGVIPFVIGGNFTGSQRAVFRQAMRHWEKHTCVTFLERTDEDSYIVFTYRPCGCCSYVGRRGGGPQAISIGKNCDKFGIVVHELGHVVGFWHEHTRPDRDRHVSIVRENIQPGQEYNFLKMEPQEVESLGETYDFDSIMHYARNTFSRGIFLDTIVPKYEVNGVKPPIGQRTRLSKGDIAQARKLYKCPACGETLQDSTGNFSSPEYPNGYSAHMHCVWRISVTPGEKIILNFTSLDLYRSRLCWYDYVEVRDGFWRKAPLRGRFCGSKLPEPIVSTDSRLWVEFRSSSNWVGKGFFAVYEAICGGDVKKDYGHIQSPNYPDDYRPSKVCIWRIQVSEGFHVGLTFQSFEIERHDSCAYDYLEVRDGHSESSTLIGRYCGYEKPDDIKSTSSRLWLKFVSDGSINKAGFAVNFFKEVDECSRPNRGGCEQRCLNTLGSYKCSCDPGYELAPDKRRCEAACGGFLTKLNGSITSPGWPKEYPPNKNCIWQLVAPTQYRISLQFDFFETEGNDVCKYDFVEVRSGLTADSKLHGKFCGSEKPEVITSQYNNMRVEFKSDNTVSKKGFKAHFFSDKDECSKDNGGCQQDCVNTFGSYECQCRSGFVLHDNKHDCKEAGCDHKVTSTSGTITSPNWPDKYPSKKECTWAISSTPGHRVKLTFMEMDIESQPECAYDHLEVFDGRDAKAPVLGRFCGSKKPEPVLATGSRMFLRFYSDNSVQRKGFQASHATECGGQVRADVKTKDLYSHAQFGDNNYPGGVDCEWVIVAEEGYGVELVFQTFEVEEETDCGYDYMELFDGYDSTAPRLGRYCGSGPPEEVYSAGDSVLVKFHSDDTITKKGFHLRYTSTKFQDTLHSRK
B3: mammalian Tolloid-like-2 (mTLL-2) (enzyme, UniProt Q9WVM6 147-1012, looked up, species assumed)
Tolloid-like protein 2: ATTSRTERIWPGGVIPYVIGGNFTGTQRAIFKQAMRHWEKHTCVTFVERTDEESFIVFSYRTCGCCSYVGRRGGGPQAISIGKNCDKFGIVAHELGHVVGFWHEHTRPDRDQHVTIIRENIQPGQEYNFLKMEAGEVSSLGETYDFDSIMHYARNTFSRGVFLDTILPRRDDNGVRPTIGQRVRLSQGDIAQARKLYKCPACGETLQDTTGNFSAPGFPNGYPSYSHCVWRISVTPGEKIILNFTSMDLFKSRLCWYDYVEIRDGYWRKAPLLGRFCGDKIPESLVSSDSRLWVEFRSSSSSLGKGFFAVYEAMCGGDITKDAGQIQSPNYPDDYRPSKECVWRITVPDGFHVGLTFQSFEIERHDSCAYDYLEIRDGPTEDSTLIGHFCGYEKPEAVKSSANRLWVKFVSDGSINKAGFAANFFKEVDECSWPDHGGCEQRCVNTLGSYTCACDPGYELAADKKTCEVACGGFITKLNGTITSPGWPKEYPTNKNCVWQVVAPVQYRISLQFEAFELEGNDVCKYDFVEVRSGLSPDAKLHGKFCGSETPEVITSQSNNMRVEFKSDNTVSKRGFRAHFFSDKDECAKDNGGCQQECVNTFGSYLCRCRNGYRLHENGHDCKEAGCAYKISSAEGTLMSPNWPDKYPSRKECTWNISSTAGHRVKITFSEFEIEQHQECAYDHLELYDGTDSLAPILGRFCGSKKPDPVVATGSSLFLRFYSDASVQRKGFQAVHSTECGGRLKAEVQTKELYSHAQFGDNNYPSQARCDWVIVAEDGYGVELIFRTFEVEEEADCGYDFMEAYDGYDSSAPRLGRFCGSGPLEEIYSAGDSLMIRFHTDDTINKKGFHARYTSTKFQDALHMRK

Legend:
[1] = system: T1, myostatin pro peptide (wild type)
[2] = target: T2, myostatin pro peptide (wild type) (Homo sapiens (Human)); assay: cell-based or functional assay
[3] = system: T3, 30-mer D to A mutant peptide (SEQ ID NO:17)
[4] = system: T4, 20-mer D to A mutant peptide (SEQ ID NO:20)
[5] = system: T5, 30-mer wild type myostatin pro peptide peptide (SEQ ID NO:15)
[6] = system: T6, 30-mer R to Q mutant peptide (SEQ ID NO:16)
[7] = system: T7, 40-mer wild type myostatin pro peptide peptide (SEQ ID NO:12)
[8] = system: T8, 40-mer D to A mutant peptide (SEQ ID NO:14)
[9] = system: T9, 20-mer R to Q mutant peptide (SEQ ID NO:19)
[10] = system: T10, 40-mer R to Q mutant peptide (SEQ ID NO:13)
[11] = system: T11, 20-mer wild type myostatin pro peptide peptide (SEQ ID NO:18)

fraction of proteolytically-cleaved myostatin complex active in the luciferase reporter assay (against a standard curve of C-terminal dimer) [2] [%]	Molecule	partial proteolytic cleavage of pro peptide in the latent complex, western blot (FIG. 3E; 1 µg complex, 250 ng proteinase, 16 hours 37° C.) [1]	proteolytic cleavage of free pro peptide (purified away from the C-terminal dimer) [1]	proteolytic cleavage of pro peptide, SDS-PAGE and western blot (500 ng substrate, 100 ng protease, overnight 37° C.; free pro peptide and latent complex) [1]	proteolytic cleavage of pro peptide in the purified latent complex, SDS-PAGE and western blot (FIG. 3D) [1]	cleavage of synthetic peptide by conditioned medium containing TLL-2, C18 HPLC and mass spectrometry [3]	cleavage of synthetic peptide by conditioned medium containing TLL-2, C18 HPLC and mass spectrometry [4]	cleavage of synthetic peptide by conditioned medium containing TLL-2, C18 HPLC and mass spectrometry [5]	cleavage of synthetic peptide by conditioned medium containing TLL-2, C18 HPLC and mass spectrometry [6]	cleavage of synthetic peptide by conditioned medium containing TLL-2, C18 HPLC and mass spectrometry [7]	cleavage of synthetic peptide by conditioned medium containing TLL-2, C18 HPLC and mass spectrometry [8]	cleavage of synthetic peptide by conditioned medium containing TLL-2, C18 HPLC and mass spectrometry [9]	cleavage of synthetic peptide by conditioned medium containing TLL-2, C18 HPLC and mass spectrometry [10]	cleavage of synthetic peptide by conditioned medium containing TLL-2, C18 HPLC and mass spectrometry [11]
–	mammalian Tolloid (mTLD)	mTLD was consistently less active than the other three	All four of these proteinases also cleaved pro peptide that had been purified away from the C-terminal dimer	each of the proteases cleaved the pro peptide whether it was in a purified form or in a complex with the myostatin C-terminal dimer	–	–	–	–	–	–	–	–	–	–
> 50	B1	Three of the proteinases, BMP-1, mTLL-1, and mTLL-2, were approximately equally effective in cleaving the pro peptide	All four of these proteinases also cleaved pro peptide that had been purified away from the C-terminal dimer	each of the proteases cleaved the pro peptide whether it was in a purified form or in a complex with the myostatin C-terminal dimer	–	–	–	–	–	–	–	–	–	–
–	B2	Three of the proteinases, BMP-1, mTLL-1, and mTLL-2, were approximately equally effective in cleaving the pro peptide	All four of these proteinases also cleaved pro peptide that had been purified away from the C-terminal dimer	each of the proteases cleaved the pro peptide whether it was in a purified form or in a complex with the myostatin C-terminal dimer	incubation of the purified latent complex with purified BMP-1 resulted in complete cleavage of the pro peptide to generate a single product	–	–	–	–	–	–	–	–	–
–	B3	Three of the proteinases, BMP-1, mTLL-1, and mTLL-2, were approximately equally effective in cleaving the pro peptide	All four of these proteinases also cleaved pro peptide that had been purified away from the C-terminal dimer	each of the proteases cleaved the pro peptide whether it was in a purified form or in a complex with the myostatin C-terminal dimer	–	the peptides containing the D→A mutation at the P1′ position were not cleaved	the peptides containing the D→A mutation at the P1′ position were not cleaved	The 40-mer, 30-mer, and 20-mer wild type and R→Q mutant peptides were cleaved by conditioned media containing TLL-2	The 40-mer, 30-mer, and 20-mer wild type and R→Q mutant peptides were cleaved by conditioned media containing TLL-2	The 40-mer, 30-mer, and 20-mer wild type and R→Q mutant peptides were cleaved by conditioned media containing TLL-2	the peptides containing the D→A mutation at the P1′ position were not cleaved	The 40-mer, 30-mer, and 20-mer wild type and R→Q mutant peptides were cleaved by conditioned media containing TLL-2	The 40-mer, 30-mer, and 20-mer wild type and R→Q mutant peptides were cleaved by conditioned media containing TLL-2	The 40-mer, 30-mer, and 20-mer wild type and R→Q mutant peptides were cleaved by conditioned media containing TLL-2
